Values of other authors, collected in article PMC2723763.

Target: ZPI (Homo sapiens) (UniProt Q9UK55)
Sequence of UniProt Q9UK55 (Q9UK55 22-444): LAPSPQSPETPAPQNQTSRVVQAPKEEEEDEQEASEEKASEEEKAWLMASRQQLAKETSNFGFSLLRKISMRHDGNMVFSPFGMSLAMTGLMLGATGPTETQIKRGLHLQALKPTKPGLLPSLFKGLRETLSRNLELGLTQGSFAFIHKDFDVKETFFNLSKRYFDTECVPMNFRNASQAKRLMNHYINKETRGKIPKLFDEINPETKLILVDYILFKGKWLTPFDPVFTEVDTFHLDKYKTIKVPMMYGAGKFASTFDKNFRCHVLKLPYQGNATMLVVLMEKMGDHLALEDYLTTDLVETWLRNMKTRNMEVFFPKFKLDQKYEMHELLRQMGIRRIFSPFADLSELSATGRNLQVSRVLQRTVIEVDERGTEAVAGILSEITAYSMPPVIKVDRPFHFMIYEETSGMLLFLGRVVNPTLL

For protein Z (from UniProt P22891), the Kd is listed as 7 nM.
